Tested on: T1, A1S_0316 (putative IclR-type transcription factor) (Acinetobacter baumannii ATCC 17978), ORF:5d858888
T1 sequence: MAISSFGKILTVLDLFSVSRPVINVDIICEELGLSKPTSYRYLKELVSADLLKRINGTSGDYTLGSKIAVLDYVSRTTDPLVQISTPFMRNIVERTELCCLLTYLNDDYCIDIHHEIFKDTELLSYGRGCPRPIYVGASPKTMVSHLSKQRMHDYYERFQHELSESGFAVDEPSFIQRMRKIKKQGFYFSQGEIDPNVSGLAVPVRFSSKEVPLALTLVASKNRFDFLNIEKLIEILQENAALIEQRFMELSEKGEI
Assay: competition
Settings: EMSA: 5 min at 37 C, 5% native PAGE (40:1), 100 V 1.5 h; binding buffer, salt and pH not stated

GGCAAGCGAAACAAAGAAGTTGTTCATATTTGCTAGTTGGGTAAAAAATTACCGAATTACAACGGAAATTGTAAGTAATTTTGTCAATAATTTACTTGATTAAAATTATCAAGCACTTGGAAAGTCTATCAAGTGTTTGTATGATTCAAATGTGAATAGCTTAAAAATAATACTGGGGTAAAAAAATATCTCAGGGGCCAATAAATTTAGGCTGAGCTTGAACAACAATTGTTATCTCTGGAGGATATCCATGAAATTGAGTCGTATTGCACTTGCTACTATGCTTGTTGCTGCTCCATT (double strand) [AbOmpA promoter (AbOmpAp), -231 to +100]
binding: binds

— article PMC7284552
